Experimental data taken from the DeepSol protein solubility set.

Test: soluble on expression in E. coli; label from the status in PepcDB or PDB records

Sequence	soluble on expression in E. coli
MALEKEEEASQNGAFCVLDGLYCEEETGFVEDDLDDDGDLDFLEKSDESVVKFQFLPLLDMFLWDDDEILSLISKENETNPCFGEQILDGFLVSCRKEALDWVLRVKSHYGFTSLTAILAVNYFDRFMTSIKLQTDKPWMSQLVAVASLSLAAKVEEIQVPLLLDLQVEEARYLFEAKTIQRMELLILSTLQWRMHPVTPISFFDHIIRRFGSKWHQQLDFCRKCERLLISVIADTRFMRYFPSVLATAIMILVFEELKPCDEVEYQSQITTLLKVNQEKVNECYELLLEHNPSKKRMMNLVDQDSPSGVLDFDDSSNSSWNVSTTASVSSSSSSPEPLLKRRRVQEQQMRLPSINRMFLDVLSSPR	soluble
MAHHHHHHMELGTPNVLPGYDASKSANGSENAKTIISDVNANYNAERKNHTVTHNDEKEGTTHDGGGDEPPQTHSNTERDKEDKIKFEKKKKKSDKLKKEREKEIVVAYWLKGIVKILNAGLKNGDIKGSNFIGKKIAEVLKKVVEISHWNNVYDLIEIIKYLGKEIIRNNKMYFIIPNIIRRVLTIIRTEHFKQLYLYNNNYVDNLNKNNNFLVDKNTNKCINSKYVYEREIKNFEQSFSFYFENNSKKNTYHIPATNTLRHSIIEGITELIADIDTSWGETEQRTSYDLFMENDVILTMGYSVGVEKFLKNINKKKDGISVIVVGGDINRNGFRMAQLLSEDGVDTTYISDSAVFAVIPKVTKVVLGSVAVSSSGGVITKIGGYNIACSAQFNSKPVTIVLPLFKLINDPFYDPIRQNELQPGPSMIYNDADNLYVRIPKYDYIPEHLITLYITEIGPVDSFQLYNITKRTYHPDDLDLSFD	not soluble
MEFSIKQSPLSVQSVVKCIKMKQAPEILGSANGKTPSCEVNRECSVFLSKAQLSSSLQEGVMQKFNGHDALPFIPADKLKDLTSRVFNGEPGAHDAKLRFESQEMKGIGTPPNTTPIKNGSPEIKLKITKTYMNGKPLFESSICGDSAADVSQSEENGQKPENKARRNRKRSIKYDSLLEQGLVEAALVSKISSPSDKKIPAKKESCPNTGRDKDHLLKYNVGDLVWSKVSGYPWWPCMVSADPLLHSYTKLKGQKKSARQYHVQFFGDAPERAWIFEKSLVAFEGEGQFEKLCQESAKQAPTKAEKIKLLKPISGKLRAQWEMGIVQAEEAASMSVEERKAKFTFLYVGDQLHLNPQVAKEAGIAAESLGEMAESSGVSEEAAENPKSVREECIPMKRRRRAKLCSSAETLESHPDIGKSTPQKTAEADPRRGVGSPPGRKKTTVSMPRSRKGDAASQFLVFCQKHRDEVVAEHPDASGEEIEELLRSQWSLLSEKQRARYNTKFALVAPVQAEEDSGNVNGKKRNHTKRIQDPTEDAEAEDTPRKRLRTDKHSLRKRDTITDKTARTSSYKAMEAASSLKSQAATKNLSDACKPLKKRNRASTAASSALGFSKSSSPSASLTENELLWEPTPVKLDLNPAALYCT	soluble
AIATYPTNLEIIGGQGGSSFSFTGENNGASLEKIWVWVGGWQIKAVRAWLSDGRDETFGVPSGSHQEYVFTPGECFTSLSLWGNGAGTRLGAIKFKTNKGGEFFAHMTSWGLKTEYPMDVGSGYCLGIVGRGGSDIDCMGFMFLNAVQSTVLTNVNYPTINQLIPKVATEEIKSVSFENKTSVKQEQKVETSKKVIKTSSWSMTKSFSSTFSVEVSAGIPEIAEVSTGFSISFGVESTHSLEQTDEKNETLTTTVEVPPKKKVDVHITIGRASFDLPYTGTVKITCKNGSVLQYETKGQYKGVAYTDIKVNTVEKDL	soluble
SLNRESERDVIKVGIIGDFTGICSELERGKVAAYKLAADEINRMGGINEKKVELLFRDDRSLSELTREAVKELTEEERVDVLMGSTLSPSREIMQHYADQTKTLYLDTQQTEGGVSSHYTFCLSAMPEQQMTQMLAYLLQKYGRKCYVVAADYNYGILSAEWVKYLVHQLGGEIVGVEYLDDRITDFNPLIDRILQLEADILFSICVFPNHDAFYLQWHQRGLNHIPNASTMVAAEAYQNVRFAPPVLENMYVMASFIEELNTPAAQRFVKKFRAAYDHREVPYMSMDTETVYTAMYVYKRAVELAGTTDTEEVITALESGAVYVDGPGGRVTVRGEDHHTSRSLSCFRINNQHRAEELFCTNPIHSDYIESMIEQTMGVKGGIKAMGANAPSTQYNMLLNKFRWHPSEG	soluble
